Results on ten molecules are retold here after patent publication US20250027068A1.

Where a chain is given by its changes, count along the chain named.

The chains are these.
B1: VRT-44 (Fc fusion)
chain: SQTEDSESLQRLRDIEDFQAEKKKQNVVYTKWLDGVDVKDHDFRKIVDGNIAYYATPLLNGRGFYDINKDFNRDNDKCAAAVAANMFHYWLDRNRDNVDRFLRQNPEKHGIIELPDEQLKLSDFLNTYESDDGYRDKSKLFDFISNNFNKPVWTDKLLDNYINGYAYNYKYGRTIEDSTKNTSKINFFKEVFNEKILTNIHSIRNQNEFSVLLSEALYTGKAIGLSYGPAGLRHSLGHIISVWGADLDADGNVVAIYVTDSDDKKLTIGDERVGLKRYKISTDDEGRLRLTAYEETHNTGGQIRGLWTLDTGKQAWADYFDKTEQTGTDQAEQDKTHTCPPCPAPEAAGAPSVFLFPPKPKDTLMISRTPEVTCVVVDVSHEDPEVKFNWYVDGVEVHNAKTKPREEQQNSTYRVVSVLTVLHQDWLNGKEYKCKVSNKALKAPIEKTISKAKGQPREPQVYTLPPSRDELTKNQVSLTCLVKGFYPSDIAVEWESNGQPENNYKTTPPVLDSDGSFFLYSKLTVDKSRWQQGNVFSCSVMHEALHNHYTQKSLSLSPG
B2: VRT-47 (Fc fusion)
chain: VTSVWTKGVTPPTDFIYGEDVLHAPYKAGQGWYDITKTFNGKDDLLCGAATAGNMLHWWFDQNKEQIENYLKKHPEKQKINFNGEQMFDVKEAIDTKDSQLDSKLFEYFKEKAFPYLSTKHLGVFPDHVIDMFINGYRLSLTNHGPTPVKRGSKDPRGGIFDAVFTRGDQSKLLTNRHDLKNKTLKEISDLIKQELTEGKALGISHTYANVRINHVINLWGADFDAEGNLEAIYVTDSDSNASIGMKKYFVGVNSNGKVAISAKEIEEDNIGAQVLGLFTLSTGQDIWNQTNDKTHTCPPCPAPEAAGAPSVFLFPPKPKDTLMISRTPEVTCVVVDVSHEDPEVKFNWYVDGVEVHNAKTKPREEQQNSTYRVVSVLTVLHQDWLNGKEYKCKVSNKALKAPIEKTISKAKGQPREPQVYTLPPSRDELTKNQVSLTCLVKGFYPSDIAVEWESNGQPENNYKTTPPVLDSDGSFFLYSKLTVDKSRWQQGNVFSCSVMHEALHNHYTQKSLSLSPG
B3: VRT-49 (Fc fusion)
chain: B2 chain with D14N, I16T, K27V, G29N
B4: VRT-40 (Fc fusion)
chain: TITSVWTKGVTPPTPEDFRYYNEDVLHAPYVANQGWYDITKTFDGKDNLLCGAATAGNMLHWWFDQNKEEIERYLKKHPEKQKIIFKNQELFDVKAAIDTKDSQTNSKLFNYFRDKAFPGLSARQLGVFPDLVLDMFINGYYLNLGKTQSTDVNRPYQDKDKRGGIFDAVFTRGVQTTLLTARHDLKNKGLNEISDLIKQELTEGKALALSHTYANVRINHVINLWGADFDAEGNLIAIYVTDSDTRASIGMKKYFVGVNANGKVAISAKKIEGDNIGAQVLGLFTLSTGQDIWQKLSDKTHTCPPCPAPEAAGAPSVFLFPPKPKDTLMISRTPEVTCVVVDVSHEDPEVKFNWYVDGVEVHNAKTKPREEQQNSTYRVVSVLTVLHQDWLNGKEYKCKVSNKALKAPIEKTISKAKGQPREPQVYTLPPSRDELTKNQVSLTCLVKGFYPSDIAVEWESNGQPENNYKTTPPVLDSDGSFFLYSKLTVDKSRWQQGNVFSCSVMHEALHNHYTQKSLSLSPG
B5: VRT-42 (Fc fusion)
chain: QITSVWTKGVTPLTPEQFRYYNEDVIHAPYLANQGWYDITKTFNGKDNLLCGAATAGNMLHWWFDQNKTEIEAYLKKHPEKQKIIFKNQELFDLKAAIDTKDSQTNSQLFNYFRDKAFPGLSARQLGVFPDLVLDMFINGYYLNVFKTQSTDVNRPYQDKDKRGGIFDAVFTRGVQTTLLTARHDLKNKGLNEISTLIKQELTEGKALALSHTYANVRISHVINLWGADFNAEGNLEAIYVTDSDSRASIGMKKYFVGVNAHGKVAISAKKIEGENIGAQVLGLFTLSSGKDIWQKLSDKTHTCPPCPAPEAAGAPSVFLFPPKPKDTLMISRTPEVTCVVVDVSHEDPEVKFNWYVDGVEVHNAKTKPREEQQNSTYRVVSVLTVLHQDWLNGKEYKCKVSNKALKAPIEKTISKAKGQPREPQVYTLPPSRDELTKNQVSLTCLVKGFYPSDIAVEWESNGQPENNYKTTPPVLDSDGSFFLYSKLTVDKSRWQQGNVFSCSVMHEALHNHYTQKSLSLSPG
B6: VRT-43 (Fc fusion)
chain: QITSVWTKGVTPPTPEQFRYYNEDVFHAPYTAHQGWYDITKTFDGKDNLLCGAATAGNMLHWWFDQNKTEIEAYLSKHPEKQKIIFKNQELFDLKAAIDTKDSQTNSALFNYFRDKAFPGLSARQLGVFPDLVLDMFINGYYLNVFKTQSTDVNRPYQDKDKRGGIFDAVFTRGVQTTLLTARHDLKNKTLNDISTIIKQELTEGRALALSHTYANVRISHVINLWGADFNAEGNLEAIYVTDSDSRASIGMKKYFVGVNASGKVAISAKKIEGENIGAQVLGLFTLSSGKDIWQKLSDKTHTCPPCPAPEAAGAPSVFLFPPKPKDTLMISRTPEVTCVVVDVSHEDPEVKFNWYVDGVEVHNAKTKPREEQQNSTYRVVSVLTVLHQDWLNGKEYKCKVSNKALKAPIEKTISKAKGQPREPQVYTLPPSRDELTKNQVSLTCLVKGFYPSDIAVEWESNGQPENNYKTTPPVLDSDGSFFLYSKLTVDKSRWQQGNVFSCSVMHEALHNHYTQKSLSLSPG
B7: VRT-50 (Fc fusion)
chain: VTSVWTKGVTPPTDFIYGEDVLHAPYKAGQGWYDITKTFNGKDNLLCGAATAGNMLHWWFDQNKEQIENYLKKHPEKQKIIFNNQELFDLKAAIDTKDSQLDSKLFEYFKEKAFPYLSTKHLGVFPDHVIDMFINGYRLSLTNHGPTPVKRGSKDKRGGIFDAVFTRGVQSKLLTNRHDFKEKTLKEISDLIKQELTEGKALGISHTYANVRINHVINLWGADFDAEGNLEAIYVTDSDTNASIGMKKYFVGVNSNGKVAISAKEIEEDNIGAQVLGLFTLSTGQDIWNQTNDKTHTCPPCPAPEAAGAPSVFLFPPKPKDTLMISRTPEVTCVVVDVSHEDPEVKFNWYVDGVEVHNAKTKPREEQQNSTYRVVSVLTVLHQDWLNGKEYKCKVSNKALKAPIEKTISKAKGQPREPQVYTLPPSRDELTKNQVSLTCLVKGFYPSDIAVEWESNGQPENNYKTTPPVLDSDGSFFLYSKLTVDKSRWQQGNVFSCSVMHEALHNHYTQKSLSLSPG
B8: VRT-53 (Fc fusion)
chain: B7 chain with D14N, I16T, K27V, G29N, F180L, E182N
B9: VRT-52 (Fc fusion)
chain: B7 chain with T38A, N40D, K42G, L101T, D102N, K104E, E107N, F180L, E182N
B10: VRT-48 (Fc fusion)
chain: VTSVWTKGVTPPTDFRKIVDGNIAYYHAPYKAGQGWYDITKAFDGGDDLLCGAATAGNMLHWWFDQNKEQIENYLKKHPEKQKINFNGEQMFDVKEAIDTKDSQTNSELFNYFKEKAFPYLSTKHLGVFPDHVIDMFINGYRLSLTNHGPTPVKRGSKDPRGGIFDAVFTRGDQSKLLTNRHDLKNKTLKEISDLIKQELTEGKALGISHTYANVRINHVINLWGADFDAEGNLEAIYVTDSDSNASIGMKKYFVGVNSNGKVAISAKEIEEDNIGAQVLGLFTLSTGQDIWNQTNDKTHTCPPCPAPEAAGAPSVFLFPPKPKDTLMISRTPEVTCVVVDVSHEDPEVKFNWYVDGVEVHNAKTKPREEQQNSTYRVVSVLTVLHQDWLNGKEYKCKVSNKALKAPIEKTISKAKGQPREPQVYTLPPSRDELTKNQVSLTCLVKGFYPSDIAVEWESNGQPENNYKTTPPVLDSDGSFFLYSKLTVDKSRWQQGNVFSCSVMHEALHNHYTQKSLSLSPG
For Enzyme Activity Endpoint Assay: Fab′2 in this document: test concentration or dose not given here.
For Enzyme Activity Endpoint Assay: Fc in this document: test concentration or dose not given here.
For Enzyme Activity Endpoint Assay: IgG in this document: test concentration or dose not given here.
For Enzyme Activity Endpoint Assay: scIgG in this document: test concentration or dose not given here.

The assay concerns the target pooled human IgG (human). In words: cell-based or functional assay.
For B1, the Enzyme Activity Endpoint Assay, Fab′2 worked out at 0 ng/µL; the Enzyme Activity Endpoint Assay, Fc is 28 ng/µL; the Enzyme Activity Endpoint Assay, IgG stood at 1070 ng/µL; the Enzyme Activity Endpoint Assay, scIgG was 21 ng/µL.

Turning to B2, the Enzyme Activity Endpoint Assay, Fab′2 amounted to 168 ng/µL; the Enzyme Activity Endpoint Assay, Fc was 317 ng/µL; the Enzyme Activity Endpoint Assay, IgG worked out at 253 ng/µL; the Enzyme Activity Endpoint Assay, scIgG stood at 156 ng/µL.

B3 registered an Enzyme Activity Endpoint Assay, Fab′2 of 135 ng/µL; an Enzyme Activity Endpoint Assay, Fc of 291 ng/µL; an Enzyme Activity Endpoint Assay, IgG of 157 ng/µL; an Enzyme Activity Endpoint Assay, scIgG of 131 ng/µL.

B4 had an Enzyme Activity Endpoint Assay: Fab′2 of 63 ng/µL, an Enzyme Activity Endpoint Assay: Fc of 243 ng/µL, an Enzyme Activity Endpoint Assay: IgG of 167 ng/µL and an Enzyme Activity Endpoint Assay: scIgG of 222 ng/µL.

On to B5, for which the Enzyme Activity Endpoint Assay, Fab′2 worked out at 0 ng/µL; the Enzyme Activity Endpoint Assay, Fc worked out at 28 ng/µL; the Enzyme Activity Endpoint Assay, IgG is 985 ng/µL; the Enzyme Activity Endpoint Assay, scIgG was 20 ng/µL.

As for B6, the Enzyme Activity Endpoint Assay, Fab′2 was 0 ng/µL; the Enzyme Activity Endpoint Assay, Fc worked out at 28 ng/µL; the Enzyme Activity Endpoint Assay, IgG was 1010 ng/µL; the Enzyme Activity Endpoint Assay, scIgG is 23 ng/µL.

With B7, the Enzyme Activity Endpoint Assay, Fab′2 stood at 8 ng/µL; the Enzyme Activity Endpoint Assay, Fc stood at 226 ng/µL; the Enzyme Activity Endpoint Assay, IgG amounted to 295 ng/µL; the Enzyme Activity Endpoint Assay, scIgG came to 360 ng/µL.

In turn, B8 had an Enzyme Activity Endpoint Assay, Fab′2 of 0 ng/µL; an Enzyme Activity Endpoint Assay, Fc of 209 ng/µL; an Enzyme Activity Endpoint Assay, IgG of 326 ng/µL; an Enzyme Activity Endpoint Assay, scIgG of 339 ng/µL.

For the molecule B9, the Enzyme Activity Endpoint Assay, Fab′2 came to 6 ng/µL; the Enzyme Activity Endpoint Assay, Fc amounted to 213 ng/µL; the Enzyme Activity Endpoint Assay, IgG is 238 ng/µL; the Enzyme Activity Endpoint Assay, scIgG was 311 ng/µL.

Turning to B10, the Enzyme Activity Endpoint Assay, Fab′2 came out at 9 ng/µL; the Enzyme Activity Endpoint Assay, Fc was 222 ng/µL; the Enzyme Activity Endpoint Assay, IgG came to 134 ng/µL; the Enzyme Activity Endpoint Assay, scIgG was 258 ng/µL.
